Data published in patent US10087225B2, “Formulation of MK2 inhibitor peptides” (MOERAE MATRIX, INC., priority 2015, dated 2018).

Assays:
Test in all cases: Kinase Profiling Assay
Type in all cases: biochemical
Settings in all cases: for % activity: 100 μM
SRPK1(h) = SRPK1(h) (Homo sapiens, UniProt Q96SB4)
DRAK1(h) = biological target: T1, DRAK1(h) (Homo sapiens, UniProt Q9UEE5)
T1 sequence (Q9UEE5 1-414): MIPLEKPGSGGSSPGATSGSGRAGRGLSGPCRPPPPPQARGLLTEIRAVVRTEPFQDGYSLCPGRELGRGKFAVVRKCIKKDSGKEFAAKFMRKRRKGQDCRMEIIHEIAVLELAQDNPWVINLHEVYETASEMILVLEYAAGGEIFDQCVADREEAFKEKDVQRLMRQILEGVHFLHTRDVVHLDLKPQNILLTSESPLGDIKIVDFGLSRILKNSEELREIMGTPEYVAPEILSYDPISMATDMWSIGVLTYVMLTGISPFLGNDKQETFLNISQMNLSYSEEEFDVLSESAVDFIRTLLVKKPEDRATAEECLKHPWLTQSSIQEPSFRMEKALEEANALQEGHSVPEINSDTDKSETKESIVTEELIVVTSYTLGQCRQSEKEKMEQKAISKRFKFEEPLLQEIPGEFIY

FGFR3(h) = FGFR3(h) (Homo sapiens, UniProt P22607)
PKD2(h) = biological target: T2, PKD2(h) (Homo sapiens, UniProt Q9BZL6)
T2 sequence (Q9BZL6 1-878): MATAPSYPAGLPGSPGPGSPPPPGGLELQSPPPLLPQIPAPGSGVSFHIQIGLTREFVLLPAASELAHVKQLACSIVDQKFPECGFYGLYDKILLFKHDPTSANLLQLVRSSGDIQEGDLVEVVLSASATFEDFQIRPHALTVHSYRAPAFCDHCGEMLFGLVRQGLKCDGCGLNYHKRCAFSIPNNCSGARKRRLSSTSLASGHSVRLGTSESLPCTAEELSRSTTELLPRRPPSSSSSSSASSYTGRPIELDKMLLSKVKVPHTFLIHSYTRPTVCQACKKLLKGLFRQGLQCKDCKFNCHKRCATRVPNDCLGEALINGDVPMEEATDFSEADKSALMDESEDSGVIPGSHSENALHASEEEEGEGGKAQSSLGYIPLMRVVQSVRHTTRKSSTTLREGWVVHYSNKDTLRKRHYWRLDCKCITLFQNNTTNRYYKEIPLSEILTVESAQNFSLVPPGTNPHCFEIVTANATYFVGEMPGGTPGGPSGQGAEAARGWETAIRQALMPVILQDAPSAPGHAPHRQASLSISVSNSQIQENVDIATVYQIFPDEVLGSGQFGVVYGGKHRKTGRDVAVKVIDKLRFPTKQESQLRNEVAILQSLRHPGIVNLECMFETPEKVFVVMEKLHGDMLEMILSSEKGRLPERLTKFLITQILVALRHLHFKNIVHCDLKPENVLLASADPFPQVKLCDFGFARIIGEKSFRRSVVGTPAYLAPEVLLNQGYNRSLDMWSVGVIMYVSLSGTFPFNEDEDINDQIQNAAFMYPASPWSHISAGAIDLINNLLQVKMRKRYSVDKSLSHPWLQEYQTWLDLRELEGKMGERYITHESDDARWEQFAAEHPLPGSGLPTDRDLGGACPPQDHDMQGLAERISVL

TSSK1(h) = biological target: T3, TSSK1(h) (Homo sapiens, UniProt Q9BXA7)
T3 sequence (Q9BXA7 1-367): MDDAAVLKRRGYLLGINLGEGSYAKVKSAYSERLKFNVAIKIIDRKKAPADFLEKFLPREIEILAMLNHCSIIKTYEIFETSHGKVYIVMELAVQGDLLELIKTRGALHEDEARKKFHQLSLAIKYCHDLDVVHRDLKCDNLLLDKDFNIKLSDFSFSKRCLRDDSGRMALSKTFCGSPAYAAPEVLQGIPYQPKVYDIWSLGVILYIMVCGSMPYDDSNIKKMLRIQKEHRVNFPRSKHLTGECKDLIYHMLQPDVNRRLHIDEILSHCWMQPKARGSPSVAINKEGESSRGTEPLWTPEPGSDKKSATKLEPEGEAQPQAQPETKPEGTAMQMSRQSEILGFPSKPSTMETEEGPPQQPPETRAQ

MELK(h) = MELK(h) (Homo sapiens, UniProt Q14680)
MELK(h), sequence (Q14680 whole entry): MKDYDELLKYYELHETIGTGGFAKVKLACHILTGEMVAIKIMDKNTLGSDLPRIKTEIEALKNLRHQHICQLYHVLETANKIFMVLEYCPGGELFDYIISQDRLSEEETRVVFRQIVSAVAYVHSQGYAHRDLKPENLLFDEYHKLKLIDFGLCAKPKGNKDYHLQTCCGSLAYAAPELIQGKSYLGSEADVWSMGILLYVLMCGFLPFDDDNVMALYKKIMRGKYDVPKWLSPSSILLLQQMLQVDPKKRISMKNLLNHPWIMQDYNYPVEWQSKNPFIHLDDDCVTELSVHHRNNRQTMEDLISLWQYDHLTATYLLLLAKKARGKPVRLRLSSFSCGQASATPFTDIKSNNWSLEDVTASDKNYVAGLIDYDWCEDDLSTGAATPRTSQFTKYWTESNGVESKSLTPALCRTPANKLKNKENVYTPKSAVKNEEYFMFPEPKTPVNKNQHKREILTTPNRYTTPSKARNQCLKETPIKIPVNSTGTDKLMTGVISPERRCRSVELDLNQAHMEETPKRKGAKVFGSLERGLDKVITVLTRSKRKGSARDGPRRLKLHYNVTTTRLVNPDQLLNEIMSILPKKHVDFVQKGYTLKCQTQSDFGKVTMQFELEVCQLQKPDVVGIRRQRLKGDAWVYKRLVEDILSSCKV

SRPK1(h), sequence (Q96SB4 whole entry): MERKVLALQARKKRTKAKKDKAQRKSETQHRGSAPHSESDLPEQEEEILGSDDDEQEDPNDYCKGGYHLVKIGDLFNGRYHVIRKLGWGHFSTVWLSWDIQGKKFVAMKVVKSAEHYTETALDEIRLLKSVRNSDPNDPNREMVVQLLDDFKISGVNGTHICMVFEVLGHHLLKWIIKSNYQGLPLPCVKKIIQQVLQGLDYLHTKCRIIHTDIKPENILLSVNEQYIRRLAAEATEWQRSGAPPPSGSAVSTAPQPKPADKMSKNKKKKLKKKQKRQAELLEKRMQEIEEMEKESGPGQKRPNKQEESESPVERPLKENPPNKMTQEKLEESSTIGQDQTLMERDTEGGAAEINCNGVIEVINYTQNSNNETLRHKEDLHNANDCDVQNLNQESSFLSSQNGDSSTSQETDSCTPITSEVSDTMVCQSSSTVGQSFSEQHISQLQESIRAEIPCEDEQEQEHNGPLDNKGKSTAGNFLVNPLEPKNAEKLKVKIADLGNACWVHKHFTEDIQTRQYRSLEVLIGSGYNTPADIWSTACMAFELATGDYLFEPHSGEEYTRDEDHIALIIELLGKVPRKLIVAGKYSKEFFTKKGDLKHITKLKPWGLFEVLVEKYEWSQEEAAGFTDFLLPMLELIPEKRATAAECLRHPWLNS
FGFR3(h), sequence (P22607 23-806): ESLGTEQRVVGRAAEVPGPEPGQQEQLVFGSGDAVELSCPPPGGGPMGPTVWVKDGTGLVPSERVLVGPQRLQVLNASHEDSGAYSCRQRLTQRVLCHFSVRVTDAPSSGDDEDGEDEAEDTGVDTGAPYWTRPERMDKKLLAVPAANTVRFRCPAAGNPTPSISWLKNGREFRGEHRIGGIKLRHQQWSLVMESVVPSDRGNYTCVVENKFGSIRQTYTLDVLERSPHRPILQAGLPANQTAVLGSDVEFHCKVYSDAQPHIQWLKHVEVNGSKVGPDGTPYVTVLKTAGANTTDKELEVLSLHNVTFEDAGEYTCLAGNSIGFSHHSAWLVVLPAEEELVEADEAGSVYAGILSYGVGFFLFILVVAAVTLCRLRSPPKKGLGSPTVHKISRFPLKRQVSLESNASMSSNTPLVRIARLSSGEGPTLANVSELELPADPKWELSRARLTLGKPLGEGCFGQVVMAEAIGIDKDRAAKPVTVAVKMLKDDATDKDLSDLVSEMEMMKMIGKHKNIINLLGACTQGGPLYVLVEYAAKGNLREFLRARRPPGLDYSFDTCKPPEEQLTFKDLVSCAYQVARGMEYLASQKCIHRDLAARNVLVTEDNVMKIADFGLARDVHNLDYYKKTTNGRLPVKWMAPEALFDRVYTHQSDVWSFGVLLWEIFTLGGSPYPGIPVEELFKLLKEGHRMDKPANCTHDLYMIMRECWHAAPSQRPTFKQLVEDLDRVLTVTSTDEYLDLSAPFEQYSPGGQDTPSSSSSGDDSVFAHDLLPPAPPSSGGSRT

Row | Substance | % activity (SRPK1(h)) [%] | % activity (DRAK1(h)) [%] | % activity (FGFR3(h)) [%] | % activity (PKD2(h)) [%] | % activity (TSSK1(h)) [%] | % activity (MELK(h)) [%] | activity at 100 µM (SRPK1(h)) [%] | activity at 100 µM (DRAK1(h)) [%] | activity at 100 µM (FGFR3(h)) [%] | activity at 100 µM (PKD2(h)) [%] | activity at 100 µM (TSSK1(h)) [%] | activity at 100 µM (MELK(h)) [%]
1 | HRRIKAWLKKIKALARQLGVAA (Mammalian) [MMI-0500] | 80 | 8 | 10 | 10 | 46 | 0 |  |  |  |  |  | 
2 | YARAAARQARAKALNRQLGVA (Mammalian) [MMI-0200] | 93 | 34 | 208 | 78 | 98 | 59 |  |  |  |  |  | 
3 | H-YARAAARQARAKALARQLGVAA-OH [MMI-0100] |  |  |  |  |  |  | 69 | 47 | 73 | 84 | 99 | 74
